Reference: US20240165163A1

Molecular target: human CD19 (human) (UniProt P15391)
Test: cell-based or functional assay

Sequence of UniProt P15391 (P15391 20-556): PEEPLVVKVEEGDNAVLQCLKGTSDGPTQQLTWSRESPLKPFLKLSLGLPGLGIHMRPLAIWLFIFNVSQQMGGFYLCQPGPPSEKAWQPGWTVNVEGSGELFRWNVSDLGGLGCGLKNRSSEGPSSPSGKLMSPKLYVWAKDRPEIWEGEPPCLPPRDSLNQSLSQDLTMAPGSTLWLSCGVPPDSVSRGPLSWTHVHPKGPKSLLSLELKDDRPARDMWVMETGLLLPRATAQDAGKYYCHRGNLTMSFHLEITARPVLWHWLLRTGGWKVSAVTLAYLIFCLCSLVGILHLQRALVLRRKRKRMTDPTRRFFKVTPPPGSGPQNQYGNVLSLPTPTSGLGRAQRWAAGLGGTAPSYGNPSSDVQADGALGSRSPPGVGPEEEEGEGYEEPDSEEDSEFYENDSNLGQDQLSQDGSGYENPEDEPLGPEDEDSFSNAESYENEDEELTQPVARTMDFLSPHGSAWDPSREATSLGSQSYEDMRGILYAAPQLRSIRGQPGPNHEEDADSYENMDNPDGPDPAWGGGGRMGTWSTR

antiCD19scFv-CD8Hinge2-Notch1TMD-Notch2STS-truncCD28delTPRRP-CD3z-Gal4VP64 (receptor)
Circuit Expression (inducible BFP reporter): > 80%
